In article PMC3616741:
Where two headings read alike, the source gives them in different places.

Key:
Assay in all cases: SPR
[1] = biological target: T1, U2AF65 1,2 (RRM1-RRM2, wild-type linker) (Homo sapiens, UniProt P26368 148-336)
U2AF65 1,2 MUT = U2AF65 1,2 MUT (Homo sapiens, UniProt P26368 148-336, D293N;K329Q;L331K;Q333E)
[2] = biological target: T1, U2AF65 1,2 (RRM1-RRM2, wild-type linker); remark: listed apart in the source

T1 sequence (P26368 148-336, one chain of several): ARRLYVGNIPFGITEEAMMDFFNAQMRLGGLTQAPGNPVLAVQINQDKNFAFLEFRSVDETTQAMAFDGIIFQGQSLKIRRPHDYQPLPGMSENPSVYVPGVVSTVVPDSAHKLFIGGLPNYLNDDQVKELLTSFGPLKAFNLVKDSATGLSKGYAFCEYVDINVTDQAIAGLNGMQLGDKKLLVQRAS
Chain of U2AF65 1,2 MUT (P26368 148-336 D293N/K329Q/L331K/Q333E, one chain of several): as the sequence (P26368 148-336, one chain of several) above, with D146N, K182Q, L184K, Q186E counted along it

Binder | Kd [1] | Kd (U2AF65 1,2 MUT) | Kd [2]
CCCCCCCUUUUCC (ssRNA) [3'-4rU] | 69.4 ± 3.1 µM | 12.5 ± 1.3 µM | –
CCCUUUUUUCUCC (ssRNA) [rC(10)] | 11.9 ± 0.8 µM | – | –
CCCCCCUUUUUCC (ssRNA) [3'-5rU] | 45.2 ± 3.4 µM | – | –
CCCUUUCUUCUCC (ssRNA) [rC(7,10)] | 14.5 ± 0.9 µM | – | –
CCUUUCCCCCCCC (ssRNA) [5'-3rU] | 22 ± 0.9 µM | – | –
CCCCCCCCUUUCC (ssRNA) [3'-3rU] | 89.5 ± 3.9 µM | – | –
CCUUUUCCCCCCC (ssRNA) [5'-4rU] | 14.3 ± 0.6 µM | 14 ± 1.6 µM | –
CCCUCUUUUUUCC (ssRNA) [rC(5)] | 13.9 ± 1 µM | – | –
CCCUUUCUCCUCC (ssRNA) [rC(7,9,10)] | 11.6 ± 0.8 µM | – | –
CCUUUUUCCCCCC (ssRNA) [5'-5rU] | 14.4 ± 0.8 µM | – | –
CCCCCUUCUCUCC (ssRNA) [rC(4,5,8,10)] | 27.9 ± 1.3 µM | – | –
CCUCUCUUCCCCC (ssRNA) [rU(3)C(4,6,9,10,11)] | 14.4 ± 1.1 µM | – | –
CCCUUUUUUUUCC (ssRNA) [rAdML13] | – | – | 12.5 ± 1.6 µM
CCCUUUUUCUUCC (ssRNA) [rC(9)] | 13.7 ± 1.3 µM | – | –
CCCUUUCUUUUCC (ssRNA) [rC(7)] | 9.3 ± 0.4 µM | – | –
UUUUUUUUUUUUU (ssRNA) [rU13] | 13.1 ± 0.9 µM | – | –
CCCUUUCUCUUCC (ssRNA) [rC(7,9)] | 11 ± 0.6 µM | – | –
